Assay results as given in patent publication US10358467B2, “Therapeutic targets for cancer progression” (The Regents of the University of California, priority 2015, dated 2019).

B1: His-DAPLE-CT: purified His-tagged DAPLE C-terminus (aa 1650-2028, containing the GBA motif) (protein, listed as Homo sapiens)
chain: GTAPPYVGVRPCSASPSSEMVTLEEFLEESNRSSPTHDTPSCRDDLLSDYFRKASDPPAIGGQPGPPAKKEGAKMPTNFVAPTVKMAAPTSEGRPLKPGQYVKPNFRLTEAEAPPSVAPRQAQPPQSLSLGRPRQAPVPPASHAPASRSASLSRAFSLASADLLRASGPEACKQESPQKLGAPEALGGRETGSHTLQSPAPPSSHSLARERTPLVGKAGSSCQGPGPRSRPLDTRRFSLAPPKEERLAPLHQSATAPAIATAGAGAAAAGSGSNSQLLHFSPAAAPAARTKPKAPPRSGEVATITPVRAGLSLSEGDGVPGQGCSEGLPAKSPGRSPDLAPHLGRALEDCSRGSVSKSSPASPEPGGDPQTVWYEYGCV
modifications: His tag

How the values were obtained:
Rac1 = Rac1 activity pulldown assay with GST-PBD in HeLa cells; assay type: cell-based; details: 10 μM, 6 h, DAPLE-depleted HeLa cells transfected with myc-DAPLE WT
Method: Rac1 activity in HeLa cells lines was monitored using GST-tagged PAK1-binding domain (PBD; pGEX-PBD) as described previously (Benard & Bokoch, 2002). Briefly, Escherichia coli strain BL21 bacteria transformed with pGEX-PBD were grown at 37° C. and GST-PBD expression was induced at OD600 with 1 mM IPTG for 3 h at 37° C. with shaking. Bacterial lysates were prepared as described above in protein purification section, cleared of debris by centrifugation and subsequently aliquots of lysates were stored at −80° C. until use. Aliquots of bacterial lysates were thawed, cleared of precipitated proteins by centrifugation at 14,000×g for 20 min, and the cleared supernatant was subsequently incubated with glutathione beads overnight at 4° C. with constant tumbling to prepare purified bead-bound GST-PBD freshly for each assay.
To analyze the role of DAPLE in regulation of Rac1 activity HeLa cells were used. For assays done on cells at steady-state, cells were maintained overnight in a media containing 2% or 0.2% FBS prior to lysis. […]

Akt = Akt phosphorylation (pAkt S473) immunoblot in HeLa cells; assay type: cell-based; details: 10 μM, 6 h, DAPLE-depleted HeLa cells transfected with myc-DAPLE WT
Method: For immunoblotting, protein samples were separated by SDS-PAGE and transferred to PVDF membranes (Millipore). Membranes were blocked with PBS supplemented with 5% nonfat milk (or with 5% BSA when probing for phosphorylated proteins) before incubation with primary antibodies. Infrared imaging with two-color detection and band densitometry quantifications were performed using a Li-Cor Odyssey imaging system exactly as done previously (Garcia-Marcos et al, 2011a; Garcia-Marcos et al, 2010; Garcia-Marcos et al, 2012; Garcia-Marcos et al, 2011b; Ghosh et al, 2010). All Odyssey images were processed using Image J software (NIH) and assembled into figure panels using Photoshop and Illustrator software (Adobe).

His-Gαi3 [1] = biological target: T1, His-Gαi3 (Rattus norvegicus, UniProt P08753); experiment: Steady-state GTPase assay; assay type: biochemical; details: in vitro assays
T1 construct: His; made in house; host or cells: E. coli BL21 (DE3)
Method: Under the experimental conditions of steady-state GTPase assays, GTP hydrolysis occurs as a two-step reaction, i.e., 1) GDP is released from the G protein and exchanged for GTP, and 2) the GTP loaded is hydrolyzed. Nucleotide exchange is the rate limiting step in this process because it is ˜50-100 times slower than GTP hydrolysis by Gαi subunits (Mukhopadhyay & Ross, 2002). Thus, the steady-state GTPase activity reflects the rate of nucleotide exchange, and was performed as described previously (Garcia-Marcos et al, 2010; Garcia-Marcos et al, 2012; Garcia-Marcos et al, 2011b). Briefly, His-Gαi3 (100 nM) was preincubated with different concentrations of His-DAPLE-CT (aa 1650-2028) for 15 min at 30° C. in assay buffer [20 mM Na-HEPES, pH 8, 100 mM NaCl, 1 mM EDTA, 2 mM MgCl2, 1 mM DTT, 0.05% (w:v) C12E10]. GTPase reactions were initiated at 30° C. by adding an equal volume of assay buffer containing 1 μM [γ-^32P]GTP (˜50 c.p.m/fmol). […] Samples were then centrifuged for 10 min at 10,000×g, and 500 μl of the resultant supernatant were scintillation counted to quantify released [^32P]Pi. For the time course experiments, data was expressed as raw c.p.m. For the dose-dependence curve experiments, the background [^32P]Pi detected at 15 min in the absence of G protein was subtracted from each reaction and data expressed as percentage of the Pi produced by His-Gαi3 in the absence of His-DAPLE-CT.

His-Gαi3 [2] = biological target: T1, His-Gαi3; experiment: GTPγS binding assay; assay type: biochemical; details: 0-2 μM, 15 min
Method: GTPγS binding was measured using a filter binding method as described previously (Garcia-Marcos et al, 2010; Garcia-Marcos et al, 2011b). His-Gαi3 (100 nM) was preincubated with different concentrations of His-DAPLE-CT (aa 1650-2028) for 15 min at 30° C. in assay buffer [20 mM Na-HEPES, pH 8, 100 mM NaCl, 1 mM EDTA, 25 mM MgCl2, 1 mM DTT, 0.05% (w:v) C12E10]. Reactions were initiated at 30° C. by adding an equal volume of assay buffer containing 1 μM [^35S] GTPγS (˜50 c.p.m/fmol). Duplicate aliquots (25 μl) were removed at different time points, and binding of radioactive nucleotide was stopped by addition of 3 ml, ice-cold wash buffer (20 mM Tris-HCl, pH 8.0, 100 mM NaCl, 25 mM MgCl2). The quenched reactions were rapidly passed through BA-85 nitrocellulose filters (GE Healthcare) and washed with 4 ml wash buffer. Filters were dried and subjected to liquid scintillation counting. To determine the specific nucleotide binding, the background [^35S]GTPγS detected in the absence of G protein was subtracted from each reaction and data expressed as percentage of the [^35S] GTPγS bound by His-Gαi3 in the absence of His-DAPLE-CT.

[3] = biological target: T2, GST-Gαi3·Gβγ preformed complexes (Rattus norvegicus, UniProt P08753); experiment: Gβγ displacement assay; assay type: binding; details: 0.05-1 μM WT or 1 μM F1675A
T2 construct: made in house; host or cells: E. coli BL21 (DE3) for GST-Gαi3; Gβγ endogenous from HEK293T lysate
Method: This assay was performed as described previously (Garcia-Marcos et al, 2009). Briefly, GST alone or GST-Gαi3 proteins immobilized on glutathione-agarose beads were incubated overnight at 4° C. with HEK293T cell lysates in binding buffer [50 mM Tris-HCl, pH 7.4, 100 mM NaCl, 0.4% (v:v) NP-40, 10 mM MgCl2, 5 mM EDTA, 2 mM DTT, protease inhibitor cocktail supplemented with 30 μM GDP]. Unbound Gβγ-subunits were washed twice with the same buffer and proteins bound to the glutathione-agarose beads divided into equal aliquots containing ˜5 μg (˜0.4 μM) GST-fusion proteins. Aliquots were incubated with increasing concentrations (0.05-1 μM) of purified His-DAPLE-CT (1650-2028) wild-type or 1 μM His-DAPLE-CT F1675A in binding buffer supplemented with GDP (˜200 μl) for 5 h at 4° C. Glutathione-agarose beads were washed and bound proteins eluted by boiling in Laemmli sample buffer and separated by SDS-PAGE.

Gαi1 = biological target: T3, Gαi1 (Rattus norvegicus, UniProt P10824); experiment: GST pulldown of His-DAPLE-CT with GST-Gαi1; assay type: binding
T3 construct: made in house; host or cells: E. coli BL21 (DE3)

Gαi2 = biological target: T4, Gαi2 (Rattus norvegicus, UniProt P04897); experiment: GST pulldown of His-DAPLE-CT with GST-Gαi2; assay type: binding; details: compared to Gαi1 and Gαi3
T4 construct: made in house; host or cells: E. coli BL21 (DE3)

Gαi3 = biological target: T5, Gαi3 (Rattus norvegicus, UniProt P08753); experiment: GST pulldown of His-DAPLE-CT with GST-Gαi3; assay type: binding
T5 construct: made in house; host or cells: E. coli BL21 (DE3)
Method: Purified GST-Gαi3 or GST alone (5 μg) were immobilized on glutathione-Sepharose beads and incubated with binding buffer [50 mM Tris-HCl (pH 7.4), 100 mM NaCl, 0.4% (v:v) Nonidet P-40, 10 mM MgCl2, 5 mM EDTA, 30 μM GDP, 2 mM DTT, protease inhibitor mixture] for 90 min at room temperature as described before (Garcia-Marcos et al, 2011a; Ghosh et al, 2010; Ghosh et al, 2008; Lin et al, 2011). Lysates (˜250 μg) of Cos7 cells expressing appropriate myc-DAPLE constructs or purified His-DAPLE-CT (aa 1650-2028) protein (3 μg) were added to each tube, and binding reactions were carried out for 4 h at 4° C. with constant tumbling in binding buffer [50 mM Tris-HCl (pH 7.4), 100 mM NaCl, 0.4% (v:v) Nonidet P-40, 10 mM MgCl2, 5 mM EDTA, 30 μM GDP, 2 mM DTT]. Beads were washed (4×) with 1 mL of wash buffer [4.3 mM Na2HPO4, 1.4 mM KH2PO4 (pH 7.4), 137 mM NaCl, 2.7 mM KCl, 0.1% (v:v) Tween 20, 10 mM MgCl2, 5 mM EDTA, 30 μM GDP, 2 mM DTT] and boiled in Laemmli's sample buffer. In some experiments the ‘active’ conformation of the G protein was stabilized by replacing GDP in the binding and wash buffers with 30 μM GTPγS or a mixture of 30 μM GDP/30 μM AlCl3/10 mM NaF. Immunoblot quantification was performed by infrared imaging following the manufacturer's protocols using an Odyssey imaging system (Li-Cor Biosciences).

Gαo = biological target: T6, Gαo (Rattus norvegicus, UniProt P59215); experiment: GST pulldown of His-DAPLE-CT with GST-Gαo; assay type: binding
T6 construct: made in house; host or cells: E. coli BL21 (DE3)

GST-FZD7R-CT = biological target: T7, GST-FZD7R-CT (Homo sapiens, UniProt O75084); experiment: GST-FZD7-CT pulldown of His-Gαi3; assay type: binding; details: His-Gαi3 preloaded with GDP, in the presence of DAPLE-CT
T7 construct: the GST-tagged cytoplasmic tail of FZD7R; made in house; host or cells: bacteria (E. coli BL21 (DE3)); plasmid a gift of R. Yao
Method: GST-FZD7-CT and GST-PBD constructs were immobilized on glutathione-Sepharose beads directly from bacterial lysates by overnight incubation at 4° C. with constant tumbling. Next morning, GST-FZD7-CT immobilized on glutathione beads were washed and subsequently incubated with His-tagged DAPLE-CT or Gαi3 proteins at 4° C. with constant tumbling. Washes and immunoblotting were performed as previously.

T3 sequence (P10824 whole entry): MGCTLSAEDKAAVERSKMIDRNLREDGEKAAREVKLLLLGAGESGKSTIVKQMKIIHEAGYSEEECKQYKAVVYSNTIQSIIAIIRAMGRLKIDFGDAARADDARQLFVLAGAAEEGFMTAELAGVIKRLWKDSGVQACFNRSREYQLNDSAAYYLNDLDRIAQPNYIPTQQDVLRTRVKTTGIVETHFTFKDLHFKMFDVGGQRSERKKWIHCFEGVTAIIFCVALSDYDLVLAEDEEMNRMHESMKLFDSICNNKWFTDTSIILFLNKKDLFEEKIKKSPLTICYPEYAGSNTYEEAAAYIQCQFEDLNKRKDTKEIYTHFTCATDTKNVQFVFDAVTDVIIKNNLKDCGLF
T4 sequence (P04897 whole entry): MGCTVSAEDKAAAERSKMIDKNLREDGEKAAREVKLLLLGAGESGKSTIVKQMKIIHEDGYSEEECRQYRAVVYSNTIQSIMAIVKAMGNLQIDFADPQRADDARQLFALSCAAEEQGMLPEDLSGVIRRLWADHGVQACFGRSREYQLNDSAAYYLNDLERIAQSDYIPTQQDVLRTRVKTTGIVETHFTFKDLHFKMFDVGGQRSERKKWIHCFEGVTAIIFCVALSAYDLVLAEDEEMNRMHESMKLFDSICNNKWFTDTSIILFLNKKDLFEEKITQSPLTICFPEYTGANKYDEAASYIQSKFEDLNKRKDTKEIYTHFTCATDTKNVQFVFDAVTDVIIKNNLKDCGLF
T6 sequence (P59215 whole entry): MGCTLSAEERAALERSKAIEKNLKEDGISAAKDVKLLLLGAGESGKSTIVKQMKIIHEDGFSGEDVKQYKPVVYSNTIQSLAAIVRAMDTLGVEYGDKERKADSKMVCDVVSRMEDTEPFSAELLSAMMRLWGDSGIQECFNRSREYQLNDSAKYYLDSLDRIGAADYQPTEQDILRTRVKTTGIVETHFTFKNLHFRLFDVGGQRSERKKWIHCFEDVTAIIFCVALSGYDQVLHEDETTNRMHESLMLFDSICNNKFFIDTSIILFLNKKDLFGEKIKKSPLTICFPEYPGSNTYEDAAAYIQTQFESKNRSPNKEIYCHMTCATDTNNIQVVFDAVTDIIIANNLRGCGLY

Molecule | Rac1 activity (Rac1) | Akt activity (Akt) | GEF activity, activation of nucleotide exchange (His-Gαi3 [1]) | initial rate of nucleotide (GTPγS) binding by His-Gαi3 (His-Gαi3 [2]) | displacement of Gβγ from pre-assembled complex with GST-Gαi3 [3] | binding to Gαi1 (Gαi1) | binding to Gαi2 (Gαi2) | binding to Gαi3 (Gαi3) | binding to Gαo (Gαo) | increase of Gαi3 binding to GST-FZD7R-CT (GST-FZD7R-CT) [fold]
O=C1OC2(c3ccccc31)c1ccc(O)c(O)c1Oc1c2ccc(O)c1O [Gallein] | effectively inhibited | effectively inhibited |  |  |  |  |  |  |  | 
B1 |  |  | 2.5-3 fold | increased | displaced | interacts | partially reduced | interacts | not with Gαo | ~5
